Measured values published in patent publication US20240317865A1, “ANTIBODIES AGAINST INTEGRIN ALPHA 11 BETA 1” (MOMENTA PHARMACEUTICALS, INC., priority 2020, published 2024).

Key:
[1] = system: α11β1 Headpiece; assay: SPR binding to α11β1 Headpiece; design: species or system human; settings: in words
Procedure: (§1) The affinity of antibodies for human α11β1 was measured by surface plasmon resonance assay (SPR). Affinity was measured at pH 7.6 and 25° C. with a Biacore T200 instrument. Anti-HIS antibody was immobilized on the SPR sensor surface using EDC/NHS covalent attachment. HIS-tagged human α11β1 was captured on the sensor surface and a single-cycle kinetics assay was used. Increasing concentrations of test antibody were injected in series over the sensor-bound α11β1. Dissociation was monitored for 1000 seconds. A sensor surface with only anti-HIS antibody and a series of blank injections were used to double-reference subtract the data. A 1:1 Langmuir model was fit to the data to estimate the kinetic association and dissociation constants. The affinity (equilibrium dissociation constant) of the interaction was calculated by dividing the kinetic dissociation constant by the kinetic association constant. Between injection cycles α11β1 and bound antibody were removed with an injection of 10 mM glycine at pH 1.5.
(§2) The binding affinity of antibodies for the α11β1 Headpiece and α11β1 I Domain as measured by SPR is shown in FIG. 10A and FIG. 10B, respectively.

[2] = molecular target: T1, α11β1 I Domain (Homo sapiens, UniProt Q9UKX5); assay: SPR binding to α11β1 I Domain; settings: in words
T1 sequence (Q9UKX5 164-345 limits assumed): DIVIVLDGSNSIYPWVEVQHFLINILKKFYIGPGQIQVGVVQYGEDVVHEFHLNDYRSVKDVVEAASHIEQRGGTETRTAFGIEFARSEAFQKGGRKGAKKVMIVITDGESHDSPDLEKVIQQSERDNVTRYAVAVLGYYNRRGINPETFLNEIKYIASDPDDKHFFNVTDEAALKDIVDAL
Procedure: as §1, §2

[3] = system: human Precision-Cut Kidney Slices (PCKS); assay: Precision-Cut Kidney Slices (PCKS); format: cell-based; settings: 72- and 96-hour time points at each dose tested (1, 10 and 50 μg/mL)
Procedure: PCKS were prepared from explanted fibrotic human kidney tissue and rested for 24 hours to allow the post-slicing stress period to elapse before experiments began. PCKS were cultured with TGF-β1 (3 ng/mL) and PDGFββ (50 ng/mL) in the presence or absence of Alk5i (10 μM, positive control), test anti-α11β1 antibodies over three doses (1, 10 and 50 μg/mL) or in the presence of IgG control antibodies at a single high dose. PCKS culture media was harvested every 24 hours for a total of 3 time points. Levels of Collagen type I α1 (col1a1) in the tissue culture supernatants were quantified using R&D Duoset ELISA kits. Statistics were performed using Two-way ANOVA followed by Dunnett's multiple comparisons test.
As described in the methods above, PCKS were prepared from explanted fibrotic human kidney tissue and rested for 24 hours to allow the post-slicing stress period to elapse before experiments began. PCKS were cultured with TGF-β1 (3 ng/ml) and PDGFββ (50 ng/mL) in the presence or absence of Alk5i (10 μM, positive control), test anti-α11β1 antibodies over three doses (1, 10 and 50 μg/mL) or in the presence of IgG control antibodies at a single high dose. PCKS culture media was harvested every 24 hours for a total of 3 time points. Levels of Collagen type I α1 (col1a1) in the tissue culture supernatants were quantified using R&D Duoset ELISA kits. […]

[4] = system: CHO-K1 human α11-mediated rat tail type I collagen gel contraction; assay: Collagen gel contraction assay; format: cell-based; settings: compared to untreated condition
Procedure: 24-well plates were blocked with 2% BSA in PBS overnight at 37° C. The following day, the plates were washed 3 times with PBS before being used in the assay. Human CHO cell lines expressing α11 were harvested and resuspended at 1.25×10^6 in ExpiCHO Expression Medium (Gibco™ Cat #A2910002). The collagen gel solution was prepared by diluting 3 mg/mL stock collagen type I (Gibco™ Collagen I Rat Protein, Tail Cat #A1048301) to 1 mg/mL in the media containing the CHO cells. Sodium hydroxide was added to the solution to neutralize the pH and 400 μL of the collagen solution was added to each well of the 24-well plates. For the wells where the antibodies were included in the collagen gel solution, CHO cells were prepared at 2.5×10^6 and the antibodies were prepared at 2× final concentration in ExpiCHO media. The cells and antibodies were then combined 1:1 before the addition of the stock collagen type 1. The gels were allowed to polymerize for 60 minutes at 37° C. Antibodies were added to the ExpiCHO media, which was then layered on top of the polymerized gel (400 μL/well). The gels were incubated for 6 days at 37° C. before gel contraction was quantified. Images of each well were analyzed using Image J and gel contraction was determined as a percentage of the initial gel area.
Selected exemplary antibodies were tested for the ability to inhibit cell-mediated 3D gel contraction because this ability is directly linked to the functionality of the exemplary antibodies.

[5] = system: α1β1, α2β1 and/or α10β1; assay: Counter-screen against other collagen receptors (off target); format: binding, human
Procedure: Wistar rats were immunized with recombinant human α11β1 protein. An enzyme-linked immunosorbent assay (ELISA) was used to test an immune response against target human and mouse proteins. Subsequently, cell fusion (by electro fusion) was performed with animals that produced a good immune response. All fused cells were plated in a 96-well plate and supernatants were screened by ELISA against soluble human and mouse α11β1. Positive clones were counter-screened against human α1β1, α2β1 and α10β1. […] Purified antibodies were then generated from the selected clones and heavy chain and light chain variable domain sequences were obtained from each purified antibody.
10 mice from 5 different strains were immunized with an appropriate mixture of human α11β1, mouse α11β1 and tolerance breaking protein. Plasma titers were evaluated by ELISA against a mixture of human and mouse α11β1. Popliteal, inguinal, and iliac lymph nodes were collected. ELISA-positive anti-human/mouse α11β1 hybridomas were expanded and subjected to a secondary screen against human and mouse α11β1, control HIS protein, and a counter-screen was performed against human […], α2β1 and α10β1. Supernatant IgG concentration was sufficient for functional screening. […]

[6] = molecular target: T1, α11β1 I Domain; assay: ELISA binding to in-house generated α11β1 I domain; design: An in-house generated I domain of α11β1 was used; made in house; settings: in words
Procedure: 0.25 μg/mL of target antigen (recombinant human or mouse α11β1) was plated in a 96-well plate over night at 4° C. Plates were washed (PBS with 0.1% Tween-20), blocked (PBS with 2% BSA and 0.05% Tween-20) for 1 hour at room temperature and incubated with a range of antibody concentrations for 1 hour at room temperature. Subsequently, plates were washed and incubated with biotinylated anti-rabbit/mouse/human IgG in a 1:1000 dilution buffer and incubated for 1 hour at room temperature. After washing the plates, Streptavidin HRP was added at 1:200 in dilution buffer and incubated for 1 hour at room temperature. Ultra TMB ELISA substrate solution was added and the plates incubated for 5 minutes on a plate shaker. The reaction was stopped by adding stop solution to each well and plates were read at 450 nm.
Data was also collected to determine whether antibodies of interest bind to the I domain of α11β1. An in-house generated I domain of α11β1 was used. […] Mouse antibodies 10-F23, 10-L15, 7-O8, 6-A12, 9-G05 and 9-E16 and rabbit antibodies 7-H12 and 2-D3 were also tested for binding against the in-house generated α11β1 I domain. FIGS. 3A and 3B show graphs illustrating binding data from exemplary mAbs.

B1: 1994_01_C07: fully human anti-α11β1 mAb from phage display; HCDR3 SEQ ID NO: 267, LCDR3 SEQ ID NO: 271 (antibody, V domains shown)
VH: QVQLVQSGAEVKKPGASVKVSCKASGYTFTSYGISWVRQAPGQGLEWMGWISAYNGNTNYAQKLQGRVTMTTDTSTSTAYMELRSLRSDDTAAYYCARVTGITGTTIDPWGQGTMVTVSS
VL: DIQMTQSPSSLSASVGDRVTITCRASQSISSYLNWYQQKPGKAPKLLIYDASSLESGVPSRFSGSGSGTEFTLTISSLQPDDFAVYYCQQYNNWPQTFGQGTKVEIK
Which “Binding to α11β1 headpiece domain (SPR)” value [1] does the source give for B1 here?
The value was “do not bind”.

What about the “Binding to α11β1 I domain (SPR)” value [2] of the same molecule?
Its value is “do not bind”.

What about the “Inhibition of col1a1 secretion” value [3] of the same molecule?
Its value is “significant inhibition of col1a1 secretion”.

What about the “Inhibition of CHO-hu α11-mediated collagen gel contraction” value [4] of the same molecule?
Its value is “inhibited”.

B2: 40G10H11: rat anti-α11β1 mAb; VH SEQ ID NO: 157, VL SEQ ID NO: 158 (antibody, V domains shown)
VH: MDIRLSLGFLVLFIKGDQCAVQLVESGGGLVQPGRSLKLSCAASRITFTDYYMAWVRQAPTKGLEWVATISSDGGDTFYRDSVKGRFTISRDNAKSTLYLQMVSLRSEDTATYYCSTDRGAQFGYWGQGTLVTVSS
VL: MAPVQLLGLLLIWLPAMRCDIQMTQSPSFLSASVGDRVSINCKASQNVHENLNWYQQKLGEAPKRLIYNTNNLQTGIPSRFSGSGSGADYTLTISSLQPEDFATYFCLQHNAFPYTFGPGTKLELK
Which results are given for B2?
Cross-reactivity with other collagen receptors [5]: does cross-react with other collagen receptors; Binding to the I domain of α11β1 [6]: not found to be an I-domain binder
